The target of assay [1] is T1, human LAMA4 G domain (LG1-5) displayed on 293 cells (human, UniProt Q16363 830-1821).
T1 construct: the vector's tags and membrane anchor are not written here; also called LAMA4-displaying human 293 cells; full length
T1 sequence: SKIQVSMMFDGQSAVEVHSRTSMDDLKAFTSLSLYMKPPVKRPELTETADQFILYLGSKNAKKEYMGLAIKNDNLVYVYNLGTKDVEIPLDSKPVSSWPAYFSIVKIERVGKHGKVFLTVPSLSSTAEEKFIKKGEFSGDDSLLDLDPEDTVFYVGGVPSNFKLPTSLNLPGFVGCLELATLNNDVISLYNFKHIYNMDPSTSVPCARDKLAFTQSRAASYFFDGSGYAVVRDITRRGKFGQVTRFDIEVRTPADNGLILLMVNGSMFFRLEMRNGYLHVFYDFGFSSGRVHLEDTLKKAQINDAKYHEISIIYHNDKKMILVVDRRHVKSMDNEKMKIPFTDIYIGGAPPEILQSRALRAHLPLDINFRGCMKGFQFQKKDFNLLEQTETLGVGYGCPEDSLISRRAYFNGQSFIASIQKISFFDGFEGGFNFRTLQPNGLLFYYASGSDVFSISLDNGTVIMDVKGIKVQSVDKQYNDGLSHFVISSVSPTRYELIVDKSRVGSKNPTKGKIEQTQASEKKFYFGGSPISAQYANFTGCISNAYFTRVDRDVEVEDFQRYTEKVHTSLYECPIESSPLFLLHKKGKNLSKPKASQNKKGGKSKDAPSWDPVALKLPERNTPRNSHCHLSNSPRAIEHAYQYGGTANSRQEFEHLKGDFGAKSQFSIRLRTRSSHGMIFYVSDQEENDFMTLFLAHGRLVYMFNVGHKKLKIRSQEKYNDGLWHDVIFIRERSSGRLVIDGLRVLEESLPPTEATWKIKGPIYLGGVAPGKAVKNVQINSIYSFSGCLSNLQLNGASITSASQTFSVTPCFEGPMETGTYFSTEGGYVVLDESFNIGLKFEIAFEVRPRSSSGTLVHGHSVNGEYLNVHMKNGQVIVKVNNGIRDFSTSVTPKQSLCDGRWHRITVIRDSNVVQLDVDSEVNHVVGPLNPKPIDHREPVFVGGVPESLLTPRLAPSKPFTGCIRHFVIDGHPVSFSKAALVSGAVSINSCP
The assay is described as follows: flow cytometry on 293 cells displaying LAMA4 G-domain variants; % binding. From the text:
(§1) LGde1 has a full-length G domain (i.e., LG1-5) with LG1 deleted, LGde2 has a full-length G domain with LG2 deleted, and LGde3 has a full-length G domain with LG3 deleted. Recombinant MCAM-Fc protein was able to specifically bind 293 cells expressing LAMA4 variants LG1-5, LG1-3, and LGde 1 (LG23), but not 293 cells expressing LAMA 4 variants LG4-5, LGde2 (LG13), or LGde3 (LG12).
(Flow cytometry measures light scatter and fluorescence of single cells or particles in a stream.)

Assay [2] concerns the target T2, human LAMA4 LG1-3 modules displayed on 293 cells (human, UniProt Q16363 830-1430).
T2 construct: pDisplay construct on 293 cells; vector tags and anchor not written here
T2 sequence: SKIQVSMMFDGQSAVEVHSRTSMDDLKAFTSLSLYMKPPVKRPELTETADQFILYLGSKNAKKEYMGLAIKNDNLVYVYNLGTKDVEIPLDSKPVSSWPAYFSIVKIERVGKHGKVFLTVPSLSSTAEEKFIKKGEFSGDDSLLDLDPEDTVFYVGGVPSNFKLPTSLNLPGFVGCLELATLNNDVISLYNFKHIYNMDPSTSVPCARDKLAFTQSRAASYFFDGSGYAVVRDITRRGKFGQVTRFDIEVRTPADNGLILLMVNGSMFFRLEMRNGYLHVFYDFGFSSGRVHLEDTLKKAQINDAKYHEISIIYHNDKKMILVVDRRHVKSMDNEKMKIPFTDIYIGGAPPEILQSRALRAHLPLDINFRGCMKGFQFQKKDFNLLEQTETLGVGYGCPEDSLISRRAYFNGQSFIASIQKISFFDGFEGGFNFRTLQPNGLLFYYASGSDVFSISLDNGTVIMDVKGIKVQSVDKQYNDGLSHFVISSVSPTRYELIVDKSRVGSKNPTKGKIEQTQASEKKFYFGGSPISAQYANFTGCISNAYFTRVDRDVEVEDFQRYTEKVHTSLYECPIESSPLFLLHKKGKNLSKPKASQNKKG
Described as above.
Description: as §1

In assay [3] the target is T3, human LAMA4 LG4-5 modules displayed on 293 cells (human, UniProt Q16363 1453-1821).
T3 construct: pDisplay construct on 293 cells; vector tags and anchor not written here
T3 sequence: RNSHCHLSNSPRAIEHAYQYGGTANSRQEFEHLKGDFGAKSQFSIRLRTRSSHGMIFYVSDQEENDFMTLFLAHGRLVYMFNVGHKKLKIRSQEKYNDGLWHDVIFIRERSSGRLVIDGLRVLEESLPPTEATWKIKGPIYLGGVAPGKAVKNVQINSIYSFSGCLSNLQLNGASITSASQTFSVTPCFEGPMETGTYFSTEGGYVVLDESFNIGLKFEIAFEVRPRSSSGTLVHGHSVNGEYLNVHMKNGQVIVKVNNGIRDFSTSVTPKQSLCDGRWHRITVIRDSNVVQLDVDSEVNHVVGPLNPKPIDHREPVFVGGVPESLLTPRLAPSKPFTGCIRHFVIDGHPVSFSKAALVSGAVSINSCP
The description is as above.
Description: as §1

Assay [4] deals with T1, human LAMA4 G domain (LG1-5) displayed …. Nature of the assay: LAMA4 pDisplay flow cytometric blocking assay on LAMA4-displaying 293 cells; blocked ligand: 650-conjugated mouse MCAM-Fc.

Consider 2 molecules from patent US20170158755A1 (PROTHENA BIOSCIENCES, published 2017).

B1: mouse MCAM-Fc fusion protein (Fc fusion, UniProt Q8R2Y2 24-563, looked up)
chain: VPGEEKQPVPTPDLVEAEVGSTALLKCGPSRASGNFSQVDWFLIHKERQILIFRVHQGKGQREPGEYEHRLSLQDSVATLALSHVTPHDERMFLCKSKRPRLQDHYVELQVFKAPEEPTIQANVVGIHVDRQELREVATCVGRNGYPIPQVLWYKNSLPLQEEENRVHIQSSQIVESSGLYTLKSVLSARLVKEDKDAQFYCELSYRLPSGNHMKESKEVTVPVFYPAEKVWVEVEPVGLLKEGDHVTIRCLTDGNPQPHFTINKKDPSTGEMEEESTDENGLLSLEPAEKHHSGLYQCQSLDLETTITLSSDPLELLVNYVSDVQVNPTAPEVQEGESLTLTCEAESNQDLEFEWLRDKTGQLLGKGPVLQLNNVRREAGGRYLCMASVPRVPGLNRTQLVSVGIFGSPWMALKERKVWVQENAVLNLSCEASGHPQPTISWNVNGSATEWNPDPQTVVSTLNVLVTPELLETGAECTASNSLGSNTTTIVLKLVTLTTLIPDSSQTTGLSTLTVSPHTRANSTSTEKKLPQPESKGVV
notes: extracellular domain; Made in house; also called mMCAM-Fc; 650-conjugated mouse MCAM-Fc; not shown: human IgG1 (Fc part of the fusion)
For B1, the binding result in assay [1] and in assay [2] was “binds” throughout.

B2: mouse monoclonal antibody 19C12 (antibody, V domains shown)
VH: QVQLQQSGAELVKPGASVKISCKASGYAFSTYWMNWVKQRPGEGLEWIGQIYPGDGDTNYNGKFKGKATLTADKSSSTAYMQLSSLTSEDSAVYFCARSDGYYDYWGQGTTLTVSS
VL: NIVLTQSPASLAVSLGQRATISCRASESVDSYGTSFMHWYQQKPGQPPKLLICLASSLESGVPARFSGSGSRTDFTLTIDPVEADDAATYYCQQNNEDPPTFGAGTKLELKR
notes: Mouse hybridoma antibody; Mouse IgG2b was used as its isotype control; also called m19C12
In the case of B2, in assay [3], the binding result was “no binding”. Further, the “IC50 (read off the curve)” value in assay [4] is ~0.03 µg/mL.
